Where a chain is given by its changes, count along the chain named.
Assays:
Test in all cases: EMSA
BsSpo0J Q61A = biological target: T1, BsSpo0J Q61A (UniProt P26497 1-282, Q61A)
T1 sequence: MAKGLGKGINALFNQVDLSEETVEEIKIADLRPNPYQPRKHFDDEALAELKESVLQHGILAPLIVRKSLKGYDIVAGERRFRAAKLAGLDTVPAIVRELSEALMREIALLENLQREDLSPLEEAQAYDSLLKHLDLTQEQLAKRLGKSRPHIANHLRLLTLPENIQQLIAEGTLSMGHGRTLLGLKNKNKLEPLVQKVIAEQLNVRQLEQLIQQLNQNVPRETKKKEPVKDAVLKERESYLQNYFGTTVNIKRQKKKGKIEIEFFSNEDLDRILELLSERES

BsSpo0J H57E = biological target: T2, BsSpo0J H57E (UniProt P26497 1-282, H57E)
T2 sequence: T1 sequence with H57E, A61Q

BsSpo0J Q140R = biological target: T3, BsSpo0J Q140R (UniProt P26497 1-282, Q140R)
T3 sequence: T1 sequence with A61Q, Q140R

BsSpo0J R39A = biological target: T4, BsSpo0J R39A (UniProt P26497 1-282, R39A)
T4 sequence: T1 sequence with R39A, A61Q

BsSpo0J M104A = biological target: T5, BsSpo0J M104A (UniProt P26497 1-282, M104A)
T5 sequence: T1 sequence with A61Q, M104A

BsSpo0J R80A = biological target: T6, BsSpo0J R80A (UniProt P26497 1-282, R80A)
T6 sequence: T1 sequence with A61Q, R80A

BsSpo0J L60E = biological target: T7, BsSpo0J L60E (UniProt P26497 1-282, L60E)
T7 sequence: T1 sequence with L60E, A61Q

BsSpo0J E52R = biological target: T8, BsSpo0J E52R (UniProt P26497 1-282, E52R)
T8 sequence: T1 sequence with E52R, A61Q

BsSpo0J Q140A = biological target: T9, BsSpo0J Q140A (UniProt P26497 1-282, Q140A)
T9 sequence: T1 sequence with A61Q, Q140A

Measured: binding result

B1: 39-bp parS (dsDNA)
DNA 1: CAGTTGAATCAGAATGTTCCACGTGAAACAAAGAAAAAA
DNA 2: TTTTTTCTTTGTTTCACGTGGAACATTCTGATTCAACTG
binds: all assays above

— article PMC5499601 (Nucleic Acids Research, 2017)
